Results reported in paper PMC3285272 (Cell, 2012).

What was measured:
Experiment in all cases: pull-down
full-length γζ-COP dimer = target: T1, full-length γζ-COP dimer (B. taurus, UniProt P53620 1-874; P35604 1-177)
T1 sequence (looked up) 1: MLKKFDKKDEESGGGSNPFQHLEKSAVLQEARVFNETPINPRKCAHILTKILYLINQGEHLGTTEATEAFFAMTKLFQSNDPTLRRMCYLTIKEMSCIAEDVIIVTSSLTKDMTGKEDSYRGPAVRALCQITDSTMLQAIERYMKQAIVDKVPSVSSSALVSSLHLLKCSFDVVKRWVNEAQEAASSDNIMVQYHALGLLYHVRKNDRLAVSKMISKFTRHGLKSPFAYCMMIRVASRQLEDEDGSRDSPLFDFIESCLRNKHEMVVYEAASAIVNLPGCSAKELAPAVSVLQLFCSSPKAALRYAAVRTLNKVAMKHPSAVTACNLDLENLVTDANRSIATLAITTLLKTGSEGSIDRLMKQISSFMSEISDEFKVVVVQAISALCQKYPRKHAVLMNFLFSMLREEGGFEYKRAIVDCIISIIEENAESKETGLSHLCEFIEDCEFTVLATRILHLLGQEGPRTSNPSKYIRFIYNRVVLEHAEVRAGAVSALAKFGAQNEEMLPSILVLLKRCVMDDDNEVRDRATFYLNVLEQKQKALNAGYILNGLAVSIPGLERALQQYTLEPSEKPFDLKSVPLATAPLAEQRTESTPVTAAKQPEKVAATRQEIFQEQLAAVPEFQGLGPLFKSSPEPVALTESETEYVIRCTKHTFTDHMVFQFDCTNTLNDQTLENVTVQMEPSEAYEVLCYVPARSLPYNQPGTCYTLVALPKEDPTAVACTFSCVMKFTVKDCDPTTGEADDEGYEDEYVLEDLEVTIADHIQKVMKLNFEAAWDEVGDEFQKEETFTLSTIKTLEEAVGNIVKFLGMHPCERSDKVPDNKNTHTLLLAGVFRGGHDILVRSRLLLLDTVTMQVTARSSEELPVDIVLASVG
T1 sequence (looked up) 2: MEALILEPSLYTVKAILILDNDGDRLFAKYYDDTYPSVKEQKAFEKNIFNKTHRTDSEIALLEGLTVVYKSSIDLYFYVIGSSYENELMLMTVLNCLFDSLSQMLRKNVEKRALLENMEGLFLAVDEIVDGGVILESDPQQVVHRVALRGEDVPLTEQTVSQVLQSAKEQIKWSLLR

[1] = target: full-length βδ/γζ-COP complex (R. norvegicus | B. taurus, UniProt P23514 1-953; P53619 1-511; P53620 1-874; P35604 1-177)
[2] = target: T2, γζ-COP lacking the C-terminal appendage domain of γ-COP (γ-COP 1–617) (B. taurus, UniProt P53620 1-617; P35604 1-177)
T2 sequence (looked up) 1: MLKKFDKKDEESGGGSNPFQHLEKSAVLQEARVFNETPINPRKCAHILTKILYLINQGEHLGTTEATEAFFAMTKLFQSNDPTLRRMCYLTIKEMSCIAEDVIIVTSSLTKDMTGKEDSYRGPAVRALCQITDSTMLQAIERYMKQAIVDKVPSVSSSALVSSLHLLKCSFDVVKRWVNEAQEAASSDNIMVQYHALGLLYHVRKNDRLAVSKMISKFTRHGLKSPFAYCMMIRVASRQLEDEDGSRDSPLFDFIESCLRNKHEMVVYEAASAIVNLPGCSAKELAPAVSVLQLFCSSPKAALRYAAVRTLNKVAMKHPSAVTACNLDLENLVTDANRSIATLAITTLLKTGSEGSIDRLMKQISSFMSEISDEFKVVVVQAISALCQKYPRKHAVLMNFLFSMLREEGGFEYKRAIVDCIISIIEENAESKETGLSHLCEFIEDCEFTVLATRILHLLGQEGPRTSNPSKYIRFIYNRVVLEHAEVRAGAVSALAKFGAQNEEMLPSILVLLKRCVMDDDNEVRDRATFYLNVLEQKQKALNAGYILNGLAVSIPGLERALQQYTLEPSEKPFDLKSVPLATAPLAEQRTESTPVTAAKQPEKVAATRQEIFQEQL
T2 sequence (looked up) 2: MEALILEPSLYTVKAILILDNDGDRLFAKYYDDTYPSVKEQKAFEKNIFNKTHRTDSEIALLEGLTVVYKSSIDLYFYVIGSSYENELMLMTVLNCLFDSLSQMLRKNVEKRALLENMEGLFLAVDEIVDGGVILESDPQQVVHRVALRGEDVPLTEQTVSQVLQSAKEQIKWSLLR

Measured: binding result

B1: S. cerevisiae Arf1 (residues 18–181) with a C-terminal GST tag (domain or fragment, UniProt P11076 18-181, looked up)
chain: MRILMVGLDGAGKTTVLYKLKLGEVITTIPTIGFNVETVQYKNISFTVWDVGGQDRIRSLWRHYYRNTEGVIFVVDSNDRSRIGEAREVMQRMLNEDELRNAAWLVFANKQDLPEAMSAAEITEKLGLHSIRNRPWFIQATCATSGEGLYEGLEWLSNSLKNST
binds: all assays above
